Data reported in patent US20240158474A1 (SINO BIOLOGICAL, published 2024).

What was measured:
HPV52 VLP protein [1] = molecular target: T1, HPV52 VLP protein (human papillomavirus type 52, UniProt Q05138 27-504); assay: indirect ELISA on coated VLP
T1 construct: Complete VLP protein; no limits of the construct printed, whole entry named; also called P52SHELL
T1 sequence: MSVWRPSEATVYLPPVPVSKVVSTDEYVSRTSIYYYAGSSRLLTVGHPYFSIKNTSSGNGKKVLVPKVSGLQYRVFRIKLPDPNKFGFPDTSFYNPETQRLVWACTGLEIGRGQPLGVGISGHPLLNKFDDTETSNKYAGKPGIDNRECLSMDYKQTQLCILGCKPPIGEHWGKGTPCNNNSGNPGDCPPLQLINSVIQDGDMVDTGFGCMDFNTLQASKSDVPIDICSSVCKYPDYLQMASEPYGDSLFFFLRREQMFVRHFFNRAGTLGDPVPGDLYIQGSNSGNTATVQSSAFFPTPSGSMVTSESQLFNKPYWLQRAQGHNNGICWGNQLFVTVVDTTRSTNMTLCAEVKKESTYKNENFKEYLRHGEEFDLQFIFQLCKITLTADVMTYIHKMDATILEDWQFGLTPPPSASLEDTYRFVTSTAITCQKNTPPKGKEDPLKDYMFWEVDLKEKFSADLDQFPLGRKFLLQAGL

HPV56 VLP protein = molecular target: T2, HPV56 VLP protein (human papillomavirus type 56, UniProt P36743 36-507); assay: indirect ELISA on coated VLP
T2 construct: Complete VLP protein; no limits of the construct printed, whole entry named; also called HPV56L1
T2 sequence: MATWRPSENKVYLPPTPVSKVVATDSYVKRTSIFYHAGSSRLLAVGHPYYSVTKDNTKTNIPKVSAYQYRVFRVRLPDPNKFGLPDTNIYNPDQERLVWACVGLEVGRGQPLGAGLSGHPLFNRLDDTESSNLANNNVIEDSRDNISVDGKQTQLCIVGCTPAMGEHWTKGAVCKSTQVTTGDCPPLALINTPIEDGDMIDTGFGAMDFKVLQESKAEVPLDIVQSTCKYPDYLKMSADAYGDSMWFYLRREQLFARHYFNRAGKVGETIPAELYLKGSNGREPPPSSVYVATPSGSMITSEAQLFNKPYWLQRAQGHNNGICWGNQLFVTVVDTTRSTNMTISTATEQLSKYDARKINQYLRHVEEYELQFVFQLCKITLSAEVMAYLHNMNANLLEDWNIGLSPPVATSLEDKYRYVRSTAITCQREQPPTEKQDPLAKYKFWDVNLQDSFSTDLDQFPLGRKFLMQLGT

HPV58 VLP protein = molecular target: T3, HPV58 VLP protein (human papillomavirus type 58, UniProt P26535 27-499); assay: indirect ELISA on coated VLP
T3 construct: Complete VLP protein; no limits of the construct printed, whole entry named; also called P58SHELL
T3 sequence: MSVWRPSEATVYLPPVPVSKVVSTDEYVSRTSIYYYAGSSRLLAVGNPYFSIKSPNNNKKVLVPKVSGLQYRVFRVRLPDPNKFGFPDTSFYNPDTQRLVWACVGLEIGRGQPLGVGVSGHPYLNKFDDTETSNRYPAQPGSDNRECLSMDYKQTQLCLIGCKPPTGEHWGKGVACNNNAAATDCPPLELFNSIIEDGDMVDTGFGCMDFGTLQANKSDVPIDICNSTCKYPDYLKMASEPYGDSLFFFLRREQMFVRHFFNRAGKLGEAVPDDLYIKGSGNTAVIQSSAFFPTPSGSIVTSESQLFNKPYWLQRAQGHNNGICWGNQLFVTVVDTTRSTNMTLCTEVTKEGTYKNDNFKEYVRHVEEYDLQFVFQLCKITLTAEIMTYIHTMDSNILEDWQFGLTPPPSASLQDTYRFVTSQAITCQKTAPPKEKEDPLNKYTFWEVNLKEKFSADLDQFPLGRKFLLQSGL

HPV11 VLP protein = molecular target: T4, HPV11 VLP protein (human papillomavirus type 11; human …, UniProt P04012 1-470; P06416 474-499); assay: indirect ELISA on coated VLP
T4 construct: range 1-470;range 474-499; Complete VLP protein used as coating protein
T4 sequence: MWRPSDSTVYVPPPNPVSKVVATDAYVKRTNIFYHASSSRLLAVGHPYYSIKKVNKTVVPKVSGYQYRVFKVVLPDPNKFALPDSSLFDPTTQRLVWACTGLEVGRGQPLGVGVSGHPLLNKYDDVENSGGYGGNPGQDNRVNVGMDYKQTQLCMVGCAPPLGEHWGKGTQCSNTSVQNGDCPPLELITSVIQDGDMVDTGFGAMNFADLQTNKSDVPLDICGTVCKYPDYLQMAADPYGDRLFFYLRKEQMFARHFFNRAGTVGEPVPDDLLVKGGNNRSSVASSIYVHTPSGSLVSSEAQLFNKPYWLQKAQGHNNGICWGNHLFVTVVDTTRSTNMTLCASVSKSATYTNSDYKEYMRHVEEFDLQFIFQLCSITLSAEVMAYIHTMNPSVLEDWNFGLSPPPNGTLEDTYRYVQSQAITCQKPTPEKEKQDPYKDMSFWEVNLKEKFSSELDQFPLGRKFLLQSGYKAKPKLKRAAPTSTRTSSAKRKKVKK

HPV52 VLP protein [2] = molecular target: T1, HPV52 VLP protein; assay: indirect ELISA, VLP coated at 2 µg/mL, antibody 10 ng/mL, HRP goat anti-rabbit Fc
HPV59 VLP protein = molecular target: T5, HPV59 VLP protein (human papillomavirus type 59); assay: as above
T5 construct: Complete VLP protein; no limits of the construct printed, whole entry named; also called HPV59L1

B1: monoclonal antibody HPV6-R003 (antibody, V domains shown)
VH: QQQLEESGGGLVKPGGTLTLTCKASGIDLSNYYMCWVRQAPGKGLEWIGCIYTGSGRTYYASWAKGRFTISKASSTTVTLQMTSLTAADTATYFCARDYLGWRASNIWGPGTLVTVSS
VL: ELVMTQTPSSVSAAVGGTVTINCQASQSVYSNNLVWYQQKPGQPPKLLIYGASTLASGVPSRFKGSGSGTQFTLTISDVVCDDAATYYCGGYVSDSTDGTAFGGGTEVVVKG
notes: here built from variable plus constant region so that the signal peptides are left out; In the sandwich ELISA the same antibody is used as coating antibody and, labelled with horseradish peroxidase, as detection antibody; also called anti-HPV6 L1 protein antibody
B1: no binding (tested: antibody 10 ng/mL; coating 2 µg/mL) (HPV52 VLP protein [1]); no binding (tested: antibody 10 ng/mL; coating 2 µg/mL) (HPV56 VLP protein); no binding (tested: antibody 10 ng/mL; coating 2 µg/mL) (HPV58 VLP protein). For the same binder, the binding result (HPV11 VLP protein) was “no binding (tested: antibody 10 ng/mL; coating 2 µg/mL)”, the OD450-blank (HPV52 VLP protein [2]) was 0.044 OD450 and the OD450-blank (HPV59 VLP protein) was 0.041 OD450.
